Data on twelve molecules can be found in US20220089745A1 (Biogen, published 2022).

In assay [1] the target is T1, wild type (WT) GPIIb/IIIa ectodomain (heterodimer of SEQ ID NOs: 1 and 3) (human, UniProt P08514 32-993; P05106 27-716).
T1 construct: Recombinant purified ectodomain; also called GP2b3a; integrin αIIbβ3
In words: apparent monovalent affinity for GP2b3a (SEQ ID: 1 and 3); BLI or SPR, the method of each row is not given.

Assay [2] deals with T2, integrin alpha v beta III ectodomain (SEQ ID NOs: 245 and 3) (human, UniProt P06756 31-992; P05106 27-716).
T2 construct: Purified recombinant ectodomain; also called alpha v beta 3
Kind of assay: BLI, monovalent format, yeast purified Fab; drawn table of apparent integrin binding specificity. In general terms: Biolayer interferometry detects binding as a change in optical thickness at a sensor tip.

Assay [3] addresses T2, integrin alpha v beta III ectodomain …. Kind of assay: BLI, yeast purified Fab on sensor-associated AvB3 (sheet head: SEQ ID NOs: 199, 3; legend: SEQ ID NO 245 and 3); Fab concentration not given.
Assay [4] shares this target. The assay is described as above. This is another data set of the same source.
The target is the same in assay [5]. Kind of assay: BLI, yeast purified Fab on sensor-associated AvB3 (sheet head: SEQ ID NOs: 199, 3; legend: SEQ ID NO 245 and 3).
The target is the same in assay [6]. Described as above. The source holds these as a separate data set.
Assay [7] concerns the target T3, GPIIb/IIIa on gel-purified human platelets (activated or resting) (human, UniProt P08514 32-1039; P05106 27-788).
T3 construct: whole, on cells; Native receptor on platelets; also called integrin αIIbβ3 on platelets; GPIIb/IIIa on platelets
In words: flow cytometry, Fab on gel-purified human platelets; steeper curve with filled circles, which the legend box labels resting platelets. Background: Flow cytometry measures light scatter and fluorescence of single cells or particles in a stream.

For assay [8], the target named is T2, integrin alpha v beta III ectodomain …. Kind of assay: BLI, monovalent format, yeast purified Fab; drawn table of apparent integrin binding specificity (legend of FIGS. 20A-D: alpha V beta III is SEQ ID NO 245 and 3).

B1: BIIB-4-311 (Fab, V domains shown)
VH: QVQLVQSGAEVKKPGASVKVSCKASGYTFTSYYMHWVRQAPGQGLEWMGVINPSGGSTSYAQKFQGRVTMTRDTSTSTVYMELSSLRSEDTAVYYCARLMSGSSGSWGQGTLVTVSS
VL: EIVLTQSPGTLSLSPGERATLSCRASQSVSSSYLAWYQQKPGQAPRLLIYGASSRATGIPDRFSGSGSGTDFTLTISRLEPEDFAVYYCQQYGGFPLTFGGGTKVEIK
notes: Tested as Fab made from yeast-expressed, protein A-purified antibody; Only VH and VL are tied to the clone
Consider B1, for which the Kd in assay [1] came out at 0.064 µM. Further, in assay [2], the binding result is “no binding”.

B2: BIIB-4-147 (Fab, V domains shown)
VH: QVQLVQSGAEVKKPGASVKVSCKASGYTFTSYGISWVRQAPGQGLEWMGWISAYNGNTNYAQKLQGRVTMTTDTSTSTAYMELRSLRSDDTAVYYCARDLEYYDSSGYAYGYFDLWGRGTLVTVSS
VL: not shown
notes: as for B1
For B2, the Kd in assay [1] worked out at 0.005 µM. For the same molecule, in assay [3], the binding result is listed as “no binding”.

B3: BIIB-4-175 (Fab, V domains shown)
VH: EVQLVESGGGLVQPGGSLRLSCAASGFTFSDHHMDWVRQAPGKGLEWVGRTRNKANSYTTEYAASVKGRFTISRDDSKNSLYLQMNSLKTEDTAVYYCARGPPYYADLGMGVWGQGTTVTVSS
VL: EIVMTQSPATLSVSPGERATLSCRASQSVSSNLAWYQQKPGQAPRLLIYGASTRATGIPARFSGSGSGTEFTLTISSLQSEDFAVYYCQQFNLYPYTFGGGTKVEIK
notes: as for B1
For the molecule B3, the Kd in assay [1] was 0.015 µM. In addition, the binding result in assay [2] is on record as “no binding”.

B4: BIIB-4-224 (Fab, V domains shown)
VH: QLQLQESGPGLVKPSETLSLTCTVSGGSISSSSYYWGWIRQPPGKGLEWIGSIYYSGSTYYNPSLKSRVTISVDTSKNQFSLKLSSVTAADTAVYYCARDFYSSVYGMDVWGQGTTVTVSS
VL: DIQLTQSPSSLSASVGDRVTITCRASQSISSFLNWYQQKPGKAPKLLIYAASSLQSGVPSRFSGSGSGTDFTLTISSLQPEDFATYYCQQSYVHPLTFGGGTKVEIK
notes: as for B1
For the molecule B4, the Kd in assay [1] came out at 0.2 µM. Also, the binding result in assay [2] was “no binding”.

B5: BIIB-4-318 (Fab, V domains shown)
VH: QVQLQESGPGLVKPSETLSLTCAVSGYSISSGYYWGWIRQPPGKGLEWIGSIYHSGSTNYNPSLKSRVTISVDTSKNQFSLKLSSVTAADTAVYYCARSPRWRSTYANWFNPWGQGTLVTVSS
VL: DIQLTQSPSSVSASVGDRVTITCRASQGISSWLAWYQQKPGKAPKLLIYGASSLQSGVPSRFSGSGSGTDFTLTISSLQPEDFATYYCQQAAPFPLTFGGGTKVEIK
notes: as for B1
In the case of B5, the Kd in assay [1] turned out to be 0.003 µM. Besides, the binding result in assay [2] was “no binding”.

B6: BIIB-4-174 (Fab, V domains shown)
VH: QVQLVQSGAEVKKPGSSVKVSCKASGGTFSSYAISWVRQAPGQGLEWMGGIIPIFGTANYAQKFQGRVTITADESTSTAYMELSSLRSEDTAVYYCARGPPSAYGDYVWDIWGQGTMVTVSS
VL: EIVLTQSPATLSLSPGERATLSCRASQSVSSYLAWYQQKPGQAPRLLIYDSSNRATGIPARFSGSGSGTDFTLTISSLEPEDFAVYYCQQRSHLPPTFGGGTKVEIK
notes: as for B1
On to B6, for which the Kd in assay [1] was determined as 0.011 µM. Further, the binding result in assay [4] is recorded as “no binding”.

B7: BIIB-4-319 (Fab, V domains shown)
VH: QVQLQESGPGLVKPSETLSLTCAVSGYSISSGYYWAWIRQPPGKGLEWIGSIYHSGSTYYNPSLKSRVTISVDTSKNQFSLKLSSVTAADTAVYYCAREHSSSGQWNVWGQGTMVTVSS
VL: EIVLTQSPATLSLSPGERATLSCRASQSVSSYLAWYQQKPGQAPRLLIYDASNRATGIPARFSGSGSGTDFTLTISSLEPEDFAVYYCQQRSFYFTFGGGTKVEIK
notes: Tested as Fab made from yeast-expressed, protein A-purified antibody; Only VH and VL are tied to the clone; also called BBB-4-319
On to B7, for which the binding result in assay [5] is recorded as “binds”.

B8: BIIB-4-309 (Fab, V domains shown)
VH: QVQLVQSGAEVKKPGASVKVSCKASGYTFTSYGISWVRQAPGQGLEWMGWISAYNGNTNYAQKLQGRVTMTTDTSTSTAYMELRSLRSDDTAVYYCARDGLGSSPWSAFDIWGQGTMVTVSS
VL: not shown
notes: Tested as Fab made from yeast-expressed, protein A-purified antibody; Only VH and VL are tied to the clone; also called Fab BIIB_4_309
As for B8, in assay [1], the Kd stood at 0.025 µM. In assay [2], the binding result was “no binding”.

B9: BIIB-4-156 (Fab, V domains shown)
VH: QVQLVQSGAEVKKPGSSVKVSCKASGGTFSSYAISWVRQAPGQGLEWMGGIIPIFGTANYAQKFQGRVTITADESTSTAYMELSSLRSEDTAVYYCARDTGYYGASLYFDYWGQGTLVTVSS
VL: EIVLTQSPATLSLSPGERATLSCRASQSVSSYLAWYQQKPGQAPRLLIYDASNRATGIPARFSGSGSGTDFTLTISSLEPEDFAVYYCQQRSALPRTFGGGTKVEIK
notes: as for B1
Take B9: in assay [1], the Kd is 0.011 µM. Besides, the binding result in assay [6] was “binds”. Besides, the concentration giving a half-maximal response (EC50 (read off the curve)) (commonly the concentration needed to bring the measured effect to its halfway point) in assay [7] was around 0.02 µM.

B10: BIIB-4-204 (Fab, V domains shown)
VH: QVQLVQSGAEVKKPGASVKVSCKASGYTFTSYSMHWVRQAPGQGLEWMGIINPSGGSTSYAQKFQGRVTMTRDTSTSTVYMELSSLRSEDTAVYYCARSYDIGYFDLWGRGTLVTVSS
VL: EIVLTQSPATLSLSPGERATLSCRASQSVSSYLAWYQQKPGQAPRLLIYDASKRATGIPARFSGSGSGTDFTLTISSLEPEDFAVYYCQQDSFLPFTFGGGTKVEIK
notes: as for B1
Regarding B10, the Kd in assay [1] stood at 0.17 µM. For the same molecule, the binding result in assay [8] is “binds”.

B11: BIIB-4-209 (Fab, V domains shown)
VH: QVQLVQSGAEVKKPGASVKVSCKASGYTFTSYGISWVRQAPGQGLEWMGWISAYNGNTNYAQKLQGRVTMTTDTSTSTAYMELRSLRSDDTAVYYCARGRPYDHYFDYWGQGTLVTVSS
VL: EIVLTQSPATLSLSPGERATLSCRASQSVSSYLAWYQQKPGQAPRLLIYDASNRATGIPARFSGSGSGTDFTLTISSLEPEDFAVYYCQQAYNYPFTFGGGTKVEIK
notes: as for B1
Turning to B11, the Kd in assay [1] worked out at 0.098 µM. Also, the binding result in assay [8] is “binds”.

B12: BIIB-4-317 (Fab, V domains shown)
VH: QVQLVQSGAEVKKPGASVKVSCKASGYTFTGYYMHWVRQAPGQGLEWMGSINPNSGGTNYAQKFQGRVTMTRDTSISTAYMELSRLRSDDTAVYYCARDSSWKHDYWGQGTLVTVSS
VL: EIVLTQSPATLSLSPGERATLSCRASQSVSSYLAWFQQKPGQAPRLLIYDASNRATGIPARFSGSGSGTDFTLTISSLEPEDFAVYYCQQYSFYPLTFGGGTKVEIK
notes: as for B1
On to B12, for which the binding result in assay [8] is on record as “binds”.
